{
  "source": "patent US7238491",
  "about": "“Pregnane X receptor method” (SmithKline Beecham Corporation)",
  "binders": {"B1": {"name": "CYP3A4 IR6 PXRE (dsDNA)", "DNA 1": "GATCAATATGAACTCAAAGGAGGTCAGTG", "DNA 2": "CACTGACCTCCTTTGAGTTCATATTGATC"}, "B2": {"name": "CYP3A4 IR6 m2 (dsDNA)", "DNA 1": "GATCAATAACAACTCAAAGGAGGTCAGTG", "DNA 2": "CACTGACCTCCTTTGAGTTGTTATTGATC"}, "B3": {"name": "CYP3A4 IR6 m1 (dsDNA)", "DNA 1": "GATCAATATGTTCTCAAAGGAGAACAGTG", "DNA 2": "CACTGTTCTCCTTTGAGAACATATTGATC"}, "B4": {"name": "CYP3A1 DR3 PXRE (dsDNA)", "DNA 1": "GATGCAGACAGTTCATGAAGTTCATCTAGATC", "DNA 2": "GATCTAGATGAACTTCATGAACTGTCTGCATC"}},
  "key": {"mPXR1/hRXR heterodimer [1]": {"biological_target": "T1, mPXR1/hRXR heterodimer (Mus musculus / Homo sapiens, UniProt O54915;P19793 O54915:1-431,P19793:1-462)", "T1 sequence (O54915 whole entry, chain 1 of 2)": "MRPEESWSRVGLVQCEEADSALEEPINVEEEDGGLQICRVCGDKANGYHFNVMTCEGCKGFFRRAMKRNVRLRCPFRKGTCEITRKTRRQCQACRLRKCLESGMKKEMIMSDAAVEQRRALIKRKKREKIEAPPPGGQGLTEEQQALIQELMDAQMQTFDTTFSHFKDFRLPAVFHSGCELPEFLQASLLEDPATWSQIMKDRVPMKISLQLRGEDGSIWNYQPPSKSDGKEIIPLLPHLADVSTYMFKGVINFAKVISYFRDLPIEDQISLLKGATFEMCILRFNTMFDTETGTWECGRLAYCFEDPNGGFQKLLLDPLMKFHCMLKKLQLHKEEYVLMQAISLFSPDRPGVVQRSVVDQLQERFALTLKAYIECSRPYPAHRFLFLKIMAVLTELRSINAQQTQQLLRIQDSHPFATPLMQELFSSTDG", "T1 sequence (P19793 whole entry, chain 2 of 2)": "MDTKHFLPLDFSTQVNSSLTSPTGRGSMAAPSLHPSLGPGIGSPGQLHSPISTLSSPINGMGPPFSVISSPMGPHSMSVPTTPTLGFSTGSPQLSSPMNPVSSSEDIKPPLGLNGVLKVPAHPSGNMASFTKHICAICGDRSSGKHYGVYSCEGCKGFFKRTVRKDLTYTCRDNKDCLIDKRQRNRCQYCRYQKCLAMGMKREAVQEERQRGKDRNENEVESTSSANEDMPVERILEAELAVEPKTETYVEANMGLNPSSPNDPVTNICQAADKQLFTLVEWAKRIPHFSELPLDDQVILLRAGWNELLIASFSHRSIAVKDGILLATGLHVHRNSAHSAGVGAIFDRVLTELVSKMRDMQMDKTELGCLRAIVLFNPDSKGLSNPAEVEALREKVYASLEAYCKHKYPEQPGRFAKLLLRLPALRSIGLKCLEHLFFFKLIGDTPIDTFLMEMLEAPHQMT", "assay": "EMSA; same binding profile as hPXR/RXR", "settings": "tags: none; TNT rabbit reticulocyte lysate; label: 32P (probe)", "description": "(§1) Band Shift Assays hPXR, mPXR1, and hRXR were synthesized in vitro using the TNT rabbit reticulocyte lysate coupled in vitro transcription/translation system (Promega) according to the manufacturer's instructions. Gel mobility shift assays (20 µl) contained 10 mM Tris (pH 8.0), 40 mM KCl, 0.05% NP-40, 6% glycerol, 1 mM DTT, 0.2 µg of poly(dI-dC) and 2.5 µl each of in vitro synthesized PXR and RXR proteins. Competitor oligonucleotides were included at a 10-fold or 50-fold excess. After a 10 min incubation on ice, 10 ng of [^32P]-labeled oligonucleotide was added and the incubation continued for an additional 10 min. DNA-protein complexes were resolved on a 4% polyacrylamide gel in 0.5×TBE (1×TBE=90 mM Tris, 90 mM boric acid, 2 mM EDTA). Gels were dried and subjected to autoradiography at –70° C. The following oligonucleotides were used as either radiolabeled probes or competitors (sense strand is shown):\n(§2) In order to determine whether hPXR interacted directly with the CYP3A4 IR6 response element, band shift assays were performed."}, "hRXR": {"biological_target": "hRXR (Homo sapiens, UniProt P19793 P19793:1-462)", "sequence (P19793 whole entry, one chain of several)": "as the sequence (P19793 whole entry, chain 2 of 2) above", "assay": "EMSA; RXR alone without PXR", "settings": "tags: none; TNT rabbit reticulocyte lysate; label: 32P (probe)", "description": "as §1, §2"}, "[2]": {"biological_target": "T2, hPXR/hRXR heterodimer (RXR isoform not stated) (Homo sapiens, UniProt O75469;P19793 O75469:1-434,P19793:1-462)", "T2 sequence (O75469 whole entry, chain 1 of 2, canonical isoform)": "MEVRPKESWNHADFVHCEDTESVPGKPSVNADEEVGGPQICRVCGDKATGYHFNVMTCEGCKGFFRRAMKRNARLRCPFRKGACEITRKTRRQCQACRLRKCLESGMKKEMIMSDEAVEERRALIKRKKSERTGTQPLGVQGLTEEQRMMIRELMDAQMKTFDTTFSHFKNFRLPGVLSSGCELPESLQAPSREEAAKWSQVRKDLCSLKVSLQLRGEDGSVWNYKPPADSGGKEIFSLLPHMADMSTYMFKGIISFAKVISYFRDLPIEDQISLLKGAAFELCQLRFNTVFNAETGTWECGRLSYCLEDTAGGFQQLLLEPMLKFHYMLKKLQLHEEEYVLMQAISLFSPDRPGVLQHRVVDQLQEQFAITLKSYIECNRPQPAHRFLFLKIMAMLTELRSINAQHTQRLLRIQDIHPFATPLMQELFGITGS", "T2 sequence (P19793 whole entry, chain 2 of 2, canonical isoform)": "as the sequence (P19793 whole entry, chain 2 of 2) above", "assay": "EMSA; 10 mM Tris pH 8.0, 40 mM KCl, 0.05% NP-40, 6% glycerol, 1 mM DTT, poly(dI-dC), on ice; self-competed by unlabeled IR6", "settings": "tags: none; TNT rabbit reticulocyte lysate; label: 32P (probe)", "description": "as §1, §2"}, "[3]": {"biological_target": "T2, hPXR/hRXR heterodimer (RXR isoform not …)", "assay": "competition; little or no competition at 10- or 50-fold excess in EMSA", "settings": "tags: none; TNT rabbit reticulocyte lysate", "description": "as §1, §2"}, "mPXR1/hRXR heterodimer [4]": {"biological_target": "T1, mPXR1/hRXR heterodimer", "assay": "competition; same profile as hPXR/RXR; little or no competition", "settings": "tags: none; TNT rabbit reticulocyte lysate", "description": "as §1, §2"}, "mPXR1/hRXR heterodimer [5]": {"biological_target": "T1, mPXR1/hRXR heterodimer", "assay": "competition; same profile as hPXR/RXR; competes with IR6 probe", "settings": "tags: none; TNT rabbit reticulocyte lysate", "description": "as §1, §2"}, "[6]": {"biological_target": "T2, hPXR/hRXR heterodimer (RXR isoform not …)", "assay": "competition; efficient competitor of IR6 probe at 10- or 50-fold excess in EMSA", "settings": "tags: none; TNT rabbit reticulocyte lysate", "description": "as §1, §2"}},
  "data": [
    {"binder": "B1", "values": [
      {"measurement": "binding result", "setting": "mPXR1/hRXR heterodimer [1]", "value": "binds"},
      {"measurement": "binding result", "setting": "hRXR", "value": "no binding"},
      {"measurement": "binding result", "setting": "[2]", "value": "binds"}
    ]},
    {"binder": "B2", "values": [
      {"measurement": "binding result", "setting": "[3]", "value": "no binding"},
      {"measurement": "binding result", "setting": "mPXR1/hRXR heterodimer [4]", "value": "no binding"}
    ]},
    {"binder": "B3", "values": [
      {"measurement": "binding result", "setting": "[3]", "value": "no binding"},
      {"measurement": "binding result", "setting": "mPXR1/hRXR heterodimer [4]", "value": "no binding"}
    ]},
    {"binder": "B4", "values": [
      {"measurement": "binding result", "setting": "mPXR1/hRXR heterodimer [5]", "value": "binds"},
      {"measurement": "binding result", "setting": "[6]", "value": "binds"}
    ]}
  ]
}
